According to patent publication US20170190773A1 (IGYXOS, published 2017):

What was measured:
porcine LH [1] = target: T1, porcine LH (porcine, UniProt P01219 25-120; P01232 21-141); test: ELISA; hormone adsorbed on the plate (10 µg/ml), scFv at 200 µg/ml, anti-His Tag HRP
Method: (§1) Each hormone evaluated was prepared at the concentration of 10 μg/ml in a 0.1 M sodium carbonate buffer, pH 9.6, and distributed in a proportion of 100 μl per well on an ELISA plate. The adsorption time was 18 hours at +4° C. After five washes, the wells were treated with 100 µl of PBS supplemented with 0.1% Tween and 1% BSA for 45 minutes at 37° C., then each antibody or scFv was distributed in a proportion of 100 μl/well and incubated for one hour at 37° C. On each hormone evaluated, the antibody and the scFv were distributed at various concentrations according to a range of 10 to 250 μg/ml for the antibodies and of 10 to 150 or 200 μg/ml for the scFv.
(§2) After five washes, a secondary antibody coupled to peroxidase (HRP) was distributed in a proportion of 100 µl/well and incubated for one hour at 37° C. Depending on the isotype of the monoclonal antibody studied, the secondary antibody was an anti-IgG1 HRP (Ref. 115-035-205, Jackson ImmunoResearch Laboratories Inc), an anti-IgG2a HRP (Ref. 115-035-206, Jackson Laboratories) or an anti-IgM HRP (Ref. 115-035-075, Jackson Laboratories). For the scFvs, an anti-His Tag HRP (Ref. R93125 Life Technologies, France) was used. […] After the reaction had been stopped with 1 M H₂SO₄ (50 μl/well), the strength of the colored reaction (optical density) was measured using a spectrophotometer for ELISA plates.

bovine LH [2] = target: T2, bovine LH (bovine, UniProt P01217 25-120; P04651 21-141); test: as above
Method: as §1, §2

[3] = target: T3, equine chorionic gonadotropin (equine, UniProt P01220 25-120; P08751 21-169); test: as above
T3 construct: also called eCG
T3 sequence (P01220 25-120, chain 1 of 2): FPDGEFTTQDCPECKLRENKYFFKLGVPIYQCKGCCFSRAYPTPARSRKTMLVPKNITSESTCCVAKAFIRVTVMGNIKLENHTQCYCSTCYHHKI
T3 sequence (P08751 21-169, chain 2 of 2): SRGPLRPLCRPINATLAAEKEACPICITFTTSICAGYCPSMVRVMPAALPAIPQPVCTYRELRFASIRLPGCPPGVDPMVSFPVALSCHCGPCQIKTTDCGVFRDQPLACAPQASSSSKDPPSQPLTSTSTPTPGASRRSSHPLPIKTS
Method: as §1, §2

[4] = target: T4, hCG Chorulon (human chorionic gonadotropin extracted from urine of pregnant women, MSD) (human, UniProt P01215 25-116; P0DN86 21-165); test: as above
T4 construct: Commercial urinary hCG, veterinary preparation
T4 sequence (P01215 25-116, chain 1 of 2, other chains not shown): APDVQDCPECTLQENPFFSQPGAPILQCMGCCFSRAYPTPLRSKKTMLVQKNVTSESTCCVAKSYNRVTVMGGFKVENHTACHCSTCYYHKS
Method: as §1, §2

[5] = target: T5, hCG Endo 5000 (purified human chorionic gonadotropin, Schering-Plough) (human, UniProt P01215 25-116; P0DN86 21-165); test: as above
T5 construct: Commercial purified hCG
T5 sequence (P01215 25-116, chain 1 of 2, other chains not shown): as above
Method: as §1, §2

ovine LH [6] = target: T6, ovine LH (ovine, UniProt P01218 25-120; P01231 21-141); test: as above
Method: as §1, §2

porcine LH [7] = target: T1, porcine LH; test: ELISA saturation binding on adsorbed hormone; Kd estimated with GraphPad Prism 'One site-Specific binding'
Method: as §1, §2
(§3) An estimation of the dissociation constant Kd of the scFv, with respect to the various FSH, LH and CG studied, was calculated on GraphPad Prism (GraphPad Software Inc., San Diego, Calif., USA, version 5) using the “One site—Specific binding” function in a saturation binding model (“saturation binding experiment model”, GraphPad PRISM software).

bovine LH [8] = target: T2, bovine LH; test: as above
Method: as §1, §2, §3

[9] = target: T3, equine chorionic gonadotropin; test: as above
Method: as §1, §2, §3

[10] = target: T4, hCG Chorulon (human chorionic …); test: as above
Method: as §1, §2, §3

[11] = target: T5, hCG Endo 5000 (purified human chorionic …); test: as above
Method: as §1, §2, §3

ovine FSH [12] = target: T7, ovine FSH (ovine, UniProt P01218 25-120; P01227 20-129); test: as above
Method: as §1, §2, §3

[13] = target: T8, hMG Menopur (human menopausal gonadotropin, Ferring Pharmaceuticals) (human); test: as above
T8 construct: numbers for it cannot be laid to one hormone
Method: as §1, §2, §3

ovine LH [14] = target: T6, ovine LH; test: as above
Method: as §1, §2, §3

[15] = target: human FSH (preparation not named) (human, UniProt P01215 25-116; P01225 19-129); test: cell-based or functional assay
Sequence of human FSH (preparation not named) (P01215 25-116, chain 1 of 2): as the sequence (P01215 25-116, chain 1 of 2, other chains not shown) above
Sequence of human FSH (preparation not named) (P01225 19-129, chain 2 of 2): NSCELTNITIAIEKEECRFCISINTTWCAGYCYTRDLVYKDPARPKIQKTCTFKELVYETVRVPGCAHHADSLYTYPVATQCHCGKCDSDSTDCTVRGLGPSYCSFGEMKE

ovine FSH [16] = target: T7, ovine FSH; test: cell-based or functional assay
porcine FSH = porcine FSH (porcine, UniProt P01219 25-120; P01228 21-129); test: cell-based or functional assay
[17] = target: human FSH Gonal-F (recombinant human FSH, Merck Serono) (human, UniProt P01215 25-116; P01225 19-129); test: cell-based or functional assay
Sequence of human FSH Gonal-F (recombinant human FSH, Merck Serono) (P01215 25-116, chain 1 of 2): as the sequence (P01215 25-116, chain 1 of 2, other chains not shown) above
Sequence of human FSH Gonal-F (recombinant human FSH, Merck Serono) (P01225 19-129, chain 2 of 2): as the sequence (P01225 19-129, chain 2 of 2) above

B1: CF12 scFv (scFv)
scFv: QVQLQQSGGAELVKPGASVKLSCKTSGFTFSSSYISWLKQKPGQSLEWIAWIYAGTGGTSYNQKFTGKAQLTVDTSSSTAYMQFSSLTTEDSAIYYCARHGSYFDYWGQGTTLTVSSGGGGSGGGGSGGGGSDIQMTQTPASLAVSLGQRATISCKASQSVDYDGDSYMNWYQQKPGQPPKLLIYAASNLESGIPARFSGSGSGTDFTLNIHPVEEEDAATYYCQQSNEDPYTFGGGTKLEIKHHHHHH
notes: Made in E. coli periplasm; also called scFv derived from the CF12 antibody
optical density (porcine LH [1]): 2.2 optical density units | optical density (bovine LH [2]): 2.2 optical density units | optical density [3]: 0.6 optical density units | optical density [4]: 0.35 optical density units | optical density [5]: 0.38 optical density units | optical density (ovine LH [6]): 2 optical density units | Kd (porcine LH [7]): 4.73 µM | Kd (bovine LH [8]): 5.03 µM | Kd [9]: 6.12 µM | Kd [10]: 5.07 µM | Kd [11]: 6.24 µM | Kd (ovine FSH [12]): 3.78 µM | Kd [13]: 14 µM | Kd (ovine LH [14]): 5.81 µM

B2: CF12 monoclonal antibody (antibody, IgM, V domains shown)
VH: QGQMQQSGAELVKPGASVKLSCKTSGFTFSSSYISWLKQKPGQSLEWIAWIYAGTGGTSYNQKFTGKAQLTVDTSSSTAYMQFSSLTTEDSAIYYCARHGSYFDYWGQGTTLTVSS
VL: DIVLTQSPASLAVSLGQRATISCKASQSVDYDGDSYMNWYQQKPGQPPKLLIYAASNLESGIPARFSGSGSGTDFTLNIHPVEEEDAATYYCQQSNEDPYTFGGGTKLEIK
cAMP secretion of bovine granulosa cells, hFSH 3-25 ng/ml pre-complexed with 0.1 µg/ml CF12 against hFSH alone [15]: 2.5 fold | increase in the bioactivity of the hormone, LogEC50, GloSensor HEK 293 hFSHR cells (ovine FSH [16]): 1.06 LogEC50 | increase in the bioactivity of the hormone, LogEC50, GloSensor HEK 293 hFSHR cells (porcine FSH): 0.717 LogEC50 | increase in the bioactivity of the hormone, LogEC50 units, GloSensor HEK 293 hFSHR cells [17]: 0.7 LogEC50 units
